Assay [1] has as its target T1, His-tagged μ2C (μ2 170–435), wild type (rat, UniProt P84092 170-435).
T1 sequence (looked up): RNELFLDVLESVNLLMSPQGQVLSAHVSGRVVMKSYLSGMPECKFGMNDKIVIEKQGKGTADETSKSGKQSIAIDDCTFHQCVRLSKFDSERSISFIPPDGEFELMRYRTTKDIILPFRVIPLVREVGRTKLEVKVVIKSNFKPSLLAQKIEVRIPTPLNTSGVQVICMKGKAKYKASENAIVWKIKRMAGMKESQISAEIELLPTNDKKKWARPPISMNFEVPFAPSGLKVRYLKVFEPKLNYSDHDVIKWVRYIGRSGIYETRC
Description: pull-down.

For assay [2], the target named is T2, Dvl2 Lys446Ala (construct not stated) (murine, UniProt Q60838 1-736, Lys446Ala).
T2 sequence (looked up): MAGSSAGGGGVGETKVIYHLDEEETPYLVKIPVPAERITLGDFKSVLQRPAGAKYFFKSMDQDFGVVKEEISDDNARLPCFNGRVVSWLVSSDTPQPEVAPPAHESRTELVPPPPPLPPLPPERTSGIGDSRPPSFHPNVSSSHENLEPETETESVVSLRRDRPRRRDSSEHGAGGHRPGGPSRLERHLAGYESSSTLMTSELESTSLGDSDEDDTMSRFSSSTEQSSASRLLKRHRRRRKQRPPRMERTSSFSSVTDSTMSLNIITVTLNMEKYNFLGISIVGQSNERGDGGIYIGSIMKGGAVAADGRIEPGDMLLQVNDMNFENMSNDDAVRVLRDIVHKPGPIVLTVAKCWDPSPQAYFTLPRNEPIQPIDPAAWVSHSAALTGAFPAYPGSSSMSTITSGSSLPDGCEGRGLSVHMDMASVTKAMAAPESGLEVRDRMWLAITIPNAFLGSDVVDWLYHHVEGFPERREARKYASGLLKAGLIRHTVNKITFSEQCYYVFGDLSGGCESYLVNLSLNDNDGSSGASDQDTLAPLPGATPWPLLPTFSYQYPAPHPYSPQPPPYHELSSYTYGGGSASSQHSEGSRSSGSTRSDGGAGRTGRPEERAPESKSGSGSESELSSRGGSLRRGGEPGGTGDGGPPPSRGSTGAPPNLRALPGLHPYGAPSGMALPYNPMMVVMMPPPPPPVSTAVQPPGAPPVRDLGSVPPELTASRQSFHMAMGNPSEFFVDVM

For assay [3], the target named is T3, Dvl2 Lys446Met (construct not stated) (murine, UniProt Q60838 1-736, Lys446Met).
T3 sequence (looked up): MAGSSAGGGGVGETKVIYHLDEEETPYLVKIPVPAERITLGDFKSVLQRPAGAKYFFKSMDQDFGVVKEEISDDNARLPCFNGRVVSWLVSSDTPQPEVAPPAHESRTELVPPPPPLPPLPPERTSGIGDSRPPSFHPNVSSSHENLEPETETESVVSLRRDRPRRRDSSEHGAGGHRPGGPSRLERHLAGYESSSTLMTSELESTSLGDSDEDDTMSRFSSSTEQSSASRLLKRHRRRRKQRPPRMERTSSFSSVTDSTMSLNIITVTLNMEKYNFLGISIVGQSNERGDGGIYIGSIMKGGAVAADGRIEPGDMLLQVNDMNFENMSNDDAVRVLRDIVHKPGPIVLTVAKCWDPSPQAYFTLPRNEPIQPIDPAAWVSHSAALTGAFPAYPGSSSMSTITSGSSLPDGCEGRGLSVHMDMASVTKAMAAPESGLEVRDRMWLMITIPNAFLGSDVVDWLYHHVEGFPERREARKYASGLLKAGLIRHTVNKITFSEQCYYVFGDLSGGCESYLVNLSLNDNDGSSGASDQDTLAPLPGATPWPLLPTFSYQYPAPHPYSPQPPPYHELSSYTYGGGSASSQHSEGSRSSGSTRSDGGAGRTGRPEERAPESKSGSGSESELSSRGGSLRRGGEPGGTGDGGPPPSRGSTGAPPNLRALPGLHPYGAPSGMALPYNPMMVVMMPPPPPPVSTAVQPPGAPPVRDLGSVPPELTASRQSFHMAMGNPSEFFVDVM

Assay [4] has as its target T4, GST-μ2C wild type (μ2 170–435) (rat, UniProt P84092 170-435).
T4 sequence (looked up): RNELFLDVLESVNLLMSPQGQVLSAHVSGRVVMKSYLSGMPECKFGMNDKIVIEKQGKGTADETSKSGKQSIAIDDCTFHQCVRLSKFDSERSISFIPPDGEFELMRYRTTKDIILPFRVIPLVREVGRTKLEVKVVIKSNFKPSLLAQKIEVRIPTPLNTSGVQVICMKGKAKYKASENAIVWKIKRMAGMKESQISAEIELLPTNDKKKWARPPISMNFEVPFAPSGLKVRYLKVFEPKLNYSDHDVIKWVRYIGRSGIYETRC
Description: pull-down.

In assay [5] the target is T5, GST-μ2C E211A (rat, UniProt P84092 170-435, Glu211 to alanine).
T5 sequence (looked up): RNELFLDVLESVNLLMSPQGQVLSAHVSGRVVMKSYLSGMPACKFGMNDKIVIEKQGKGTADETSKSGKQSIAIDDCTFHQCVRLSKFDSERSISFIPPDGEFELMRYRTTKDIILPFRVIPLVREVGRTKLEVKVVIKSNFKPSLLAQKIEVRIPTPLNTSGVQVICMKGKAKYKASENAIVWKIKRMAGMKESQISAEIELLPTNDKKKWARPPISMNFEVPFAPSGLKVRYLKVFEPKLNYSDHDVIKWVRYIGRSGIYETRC
Description: pull-down.

The target in assay [6] is T6, GST-μ2C K213A (rat, UniProt P84092 170-435, Lys213 to alanine).
T6 sequence (looked up): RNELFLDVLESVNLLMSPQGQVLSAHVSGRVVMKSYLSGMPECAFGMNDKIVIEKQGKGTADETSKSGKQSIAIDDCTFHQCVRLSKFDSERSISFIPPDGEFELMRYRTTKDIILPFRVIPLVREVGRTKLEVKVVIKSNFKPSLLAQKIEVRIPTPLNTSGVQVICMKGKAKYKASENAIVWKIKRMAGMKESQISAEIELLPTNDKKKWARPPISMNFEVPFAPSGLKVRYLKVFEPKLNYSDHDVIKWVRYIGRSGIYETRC
In words: pull-down.

Assay [7] concerns the target T7, GST-μ2C K405A (rat, UniProt P84092 170-435, Lys405 to alanine).
T7 sequence (looked up): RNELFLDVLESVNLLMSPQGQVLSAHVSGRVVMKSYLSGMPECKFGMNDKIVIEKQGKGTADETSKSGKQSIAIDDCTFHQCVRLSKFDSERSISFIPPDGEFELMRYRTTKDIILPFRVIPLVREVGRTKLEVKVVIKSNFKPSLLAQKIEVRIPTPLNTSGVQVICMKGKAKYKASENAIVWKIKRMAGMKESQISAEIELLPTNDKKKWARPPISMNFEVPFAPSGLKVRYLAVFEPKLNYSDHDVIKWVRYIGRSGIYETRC
In words: pull-down.

In assay [8] the target is T8, GST-μ2C F407A (rat, UniProt P84092 170-435, Phe407 to alanine).
T8 sequence (looked up): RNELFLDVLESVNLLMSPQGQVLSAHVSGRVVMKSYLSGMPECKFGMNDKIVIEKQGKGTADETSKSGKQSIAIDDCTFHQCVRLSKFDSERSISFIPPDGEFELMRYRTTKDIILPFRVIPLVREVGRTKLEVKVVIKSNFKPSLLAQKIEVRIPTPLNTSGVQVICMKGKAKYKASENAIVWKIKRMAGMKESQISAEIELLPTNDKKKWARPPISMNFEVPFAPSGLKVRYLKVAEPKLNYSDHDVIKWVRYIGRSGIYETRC
Description: pull-down.

B1: GST-Dvl2 417–588, wild type (domain or fragment, murine, UniProt Q60838 417-588, looked up)
chain: LSVHMDMASVTKAMAAPESGLEVRDRMWLKITIPNAFLGSDVVDWLYHHVEGFPERREARKYASGLLKAGLIRHTVNKITFSEQCYYVFGDLSGGCESYLVNLSLNDNDGSSGASDQDTLAPLPGATPWPLLPTFSYQYPAPHPYSPQPPPYHELSSYTYGGGSASSQHSEG
Regarding B1, the binding result in assay [1] was “binds”.

B2: GST-Dvl2 417–588 D441K (domain or fragment, murine, UniProt Q60838 417-588, looked up)
chain: LSVHMDMASVTKAMAAPESGLEVRKRMWLKITIPNAFLGSDVVDWLYHHVEGFPERREARKYASGLLKAGLIRHTVNKITFSEQCYYVFGDLSGGCESYLVNLSLNDNDGSSGASDQDTLAPLPGATPWPLLPTFSYQYPAPHPYSPQPPPYHELSSYTYGGGSASSQHSEG
Consider B2, for which, in assay [1], the binding result is “binds”.

B3: GST-Dvl2 417–588 N451A (domain or fragment, murine, UniProt Q60838 417-588, looked up)
chain: LSVHMDMASVTKAMAAPESGLEVRDRMWLKITIPAAFLGSDVVDWLYHHVEGFPERREARKYASGLLKAGLIRHTVNKITFSEQCYYVFGDLSGGCESYLVNLSLNDNDGSSGASDQDTLAPLPGATPWPLLPTFSYQYPAPHPYSPQPPPYHELSSYTYGGGSASSQHSEG
Turning to B3, in assay [1], the binding result was “binds”.

B4: GST-Dvl2 417–588 R489A (domain or fragment, murine, UniProt Q60838 417-588, looked up)
chain: LSVHMDMASVTKAMAAPESGLEVRDRMWLKITIPNAFLGSDVVDWLYHHVEGFPERREARKYASGLLKAGLIAHTVNKITFSEQCYYVFGDLSGGCESYLVNLSLNDNDGSSGASDQDTLAPLPGATPWPLLPTFSYQYPAPHPYSPQPPPYHELSSYTYGGGSASSQHSEG
With B4, the binding result in assay [1] is listed as “binds”.

B5: μ2 (construct of the experiments not shown is not stated) (natural protein, rat, UniProt P84092 1-435, looked up)
chain: MIGGLFIYNHKGEVLISRVYRDDIGRNAVDAFRVNVIHARQQVRSPVTNIARTSFFHVKRSNIWLAAVTKQNVNAAMVFEFLYKMCDVMAAYFGKISEENIKNNFVLIYELLDEILDFGYPQNSETGALKTFITQQGIKSQHQTKEEQSQITSQVTGQIGWRREGIKYRRNELFLDVLESVNLLMSPQGQVLSAHVSGRVVMKSYLSGMPECKFGMNDKIVIEKQGKGTADETSKSGKQSIAIDDCTFHQCVRLSKFDSERSISFIPPDGEFELMRYRTTKDIILPFRVIPLVREVGRTKLEVKVVIKSNFKPSLLAQKIEVRIPTPLNTSGVQVICMKGKAKYKASENAIVWKIKRMAGMKESQISAEIELLPTNDKKKWARPPISMNFEVPFAPSGLKVRYLKVFEPKLNYSDHDVIKWVRYIGRSGIYETRC
On to B5, for which the “fold decrease of μ2 affinity against wild-type Dvl2” value in assay [2] and in assay [3] was roughly 2 fold in each case.

B6: His-tagged Dvl2 407–588 (domain or fragment, murine, UniProt Q60838 407-588, looked up)
chain: SLPDGCEGRGLSVHMDMASVTKAMAAPESGLEVRDRMWLKITIPNAFLGSDVVDWLYHHVEGFPERREARKYASGLLKAGLIRHTVNKITFSEQCYYVFGDLSGGCESYLVNLSLNDNDGSSGASDQDTLAPLPGATPWPLLPTFSYQYPAPHPYSPQPPPYHELSSYTYGGGSASSQHSEG
Take B6: the binding result in assay [4], in assay [5], in assay [6], in assay [7] and in assay [8] was “binds” throughout.

Values taken from paper PMC2992793 (Structure (London, England : 1993), 2010).
